The values that follow come from patent EP1536230A1, “Flow cytometric, particle-based binding assay” (Deutsches Rheuma-Forschungszentrum Berlin, priority 2003, dated 2005).

Where no end group is shown, it is not given here. The star is where a group is joined. Biotin = O=C1N[C@H]2[C@H](CS[C@H]2CCCCC(=O)*)N1

Assay [1] addresses T1, Rekombinantes menschliches CaN (Homo sapiens, UniProt Q08209).
T1 construct: made in house; host or cells: E. coli
The assay can be described thus: Flow cytometric, particle-based binding assay: FITC-CaN bound via biotinylated peptide to streptavidin beads. Particulars: FITC-CaN (25 nM), versus control without peptide; for mittlere Fluoreszenzintensität (Bindung von FITC-CaN über NFAT-B-Peptid an Beads): biot-NFAT-B-Peptid (4µM); for mittlere Fluoreszenzintensität (Bindung von FITC-CaN über biotinyliertes Peptid an Beads): biot-VIVIT-Peptid (300 nM), Streptavidin-Beads (50000). The method, then:
Der Assaypuffer war wie folgt zusammengesetzt: 25mM Tris/HCl, 3mM MgCl2, 1mM EGTA, 0,5mM DTT oder TCEP, pH 7,4. Wenn nicht anders angegeben, wurde der Assaypuffer noch mit 0,05% BSA (PAA laboratories) versetzt.
Rekombinantes menschliches CaN wurde in Boratpuffer aufgenommen und mit FITC (Sigma) in einem molaren Verhältnis von 1:12 für 1h auf Eis und vor Licht geschützt inkubiert. Das ungebundenen FITC wurde dann über eine PD10 Säule (Amersham-Pharmacia) abgetrennt.
NFAT-B Peptid (4 µM) für 10 min lichtgeschützt auf Eis inkubierte, wurden 50000 beads in 10 µl Asaypuffer pipettiert. Nach weiteren 10 min Inkubation wurde das Reaktionsgemisch (110 µl) im Durchflusszytometer "FacsCalibur" (BD Biosciences) gemessen. […] Assay vorgeschaltet. Dafür wurde 1 µl Inhibitor (in DMSO) zu FITC-CaN in Assaypuffer (94 µl) pipettiert und anschließend für 30 min lichtgeschützt auf Eis belassen. Die Auswertung der Meßdaten erfolgte mit der Software CellQuest (BD Biosciences).
Background: A flow cytometer gives signals particle by particle.

For the next assay, the target named is T2, FITC-Ovalbumin (Gallus gallus, UniProt P01012).
T2 construct: purchased Sigma
T2 sequence (P01012 1-386): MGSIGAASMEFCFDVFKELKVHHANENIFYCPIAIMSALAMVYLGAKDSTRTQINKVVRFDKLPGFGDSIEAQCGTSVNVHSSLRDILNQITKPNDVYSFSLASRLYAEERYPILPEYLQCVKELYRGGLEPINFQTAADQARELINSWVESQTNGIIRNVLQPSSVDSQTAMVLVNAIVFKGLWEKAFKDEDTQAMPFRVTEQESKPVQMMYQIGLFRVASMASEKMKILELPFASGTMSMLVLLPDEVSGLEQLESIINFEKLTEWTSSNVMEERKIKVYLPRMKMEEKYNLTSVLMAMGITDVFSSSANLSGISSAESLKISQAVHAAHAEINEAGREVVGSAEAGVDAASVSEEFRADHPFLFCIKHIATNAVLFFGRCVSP
The assay can be described thus: Flow cytometric, particle-based binding assay with control protein FITC-Ovalbumin (specificity). The following applies: FITC-Ovalbumin (25 nM); biot-VIVIT-Peptid (300 nM).

On to “KGGFCDQYLAVPQHPYQWAK [biot-NFAT-B-Peptid]”, for which the “mittlere Fluoreszenzintensität (Bindung von FITC-CaN über NFAT-B-Peptid an Beads)” value in assay [1] (mit Ca2+/Calmodulin) and in assay [1] (ohne Ca2+/Calmodulin) was “höhere mittlere Fluoreszenzintensität” in each case.
As for GGRRKRSESSKQQKPLE [AKAP79], the “mittlere Fluoreszenzintensität (Bindung von FITC-CaN über biotinyliertes Peptid an Beads)” value in assay [1] is reported as “bindet”. Further, in the assay with FITC-Ovalbumin, the “Fluoreszenzintensität (Bindung des Kontrollproteins FITC-Ovalbumin)” value was “bindet”.
With “biotinyl-EEHPGTIVIVPHPGAMG (Biotin-EEHPGTIVIVPHPGAMG) [biot-TIVIV]”, the “mittlere Fluoreszenzintensität (Bindung von FITC-CaN über biotinyliertes Peptid an Beads)” value in assay [1] is on record as “nicht mit biot-TIVIV eine erhöhte Fluoreszenzintensität”; in assay [1] (listed as biot-TIVIV-Peptid) it was “keine erhöhte Fluoreszenzintensität”.
